Source: article PMC11401910, “Dual client binding sites in the ATP-independent chaperone SurA” (Nature Communications, 2024)

Tests used:
Details in all cases: both partners purified
SurA-WT [1] = target: T1, SurA-WT (E. coli, UniProt P0ABZ6 21-428); assay: MST; 100 nM Alexa Fluor 488-labelled tBamA or OmpX, SurA-WT or SurA-core in serial dilution (40 μM–1.2 nM for tBamA, 12.5 μM–3 nM for OmpX); 0.8 M urea, 20 mM Tris-HCl, pH 8.0, 25 °C; fitted to a Hill equation, apparent Kd
T1 construct: no cleavage step is described; For NMR the protein was made in D2O medium with 13C labels on Ile delta1 and Met epsilon methyls; also called wild-type SurA; apo-SurA; source: E. coli BL21(DE3), purified (HisTrap, dialysis)
T1 sequence (looked up): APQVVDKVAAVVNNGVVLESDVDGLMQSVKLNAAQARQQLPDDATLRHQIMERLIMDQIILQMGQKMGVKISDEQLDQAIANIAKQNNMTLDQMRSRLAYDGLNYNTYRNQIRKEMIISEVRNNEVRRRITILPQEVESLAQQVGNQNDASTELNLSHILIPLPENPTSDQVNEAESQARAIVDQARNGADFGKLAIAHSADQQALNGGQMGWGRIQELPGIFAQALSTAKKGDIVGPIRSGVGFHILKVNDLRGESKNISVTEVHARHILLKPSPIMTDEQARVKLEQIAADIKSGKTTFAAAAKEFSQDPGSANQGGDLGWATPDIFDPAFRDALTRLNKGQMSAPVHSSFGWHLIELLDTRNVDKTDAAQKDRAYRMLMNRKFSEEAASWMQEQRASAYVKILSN

SurA-core [2] = target: T2, SurA-core (E. coli, UniProt P0ABZ6 21-428, deleting codons for residues 172–389); assay: as above
T2 construct: gene numbering including the signal peptide; no cleavage step described; also called core domain; construct lacking both PPIase domains; source: E. coli BL21(DE3), purified (HisTrap, dialysis)
T2 sequence (looked up): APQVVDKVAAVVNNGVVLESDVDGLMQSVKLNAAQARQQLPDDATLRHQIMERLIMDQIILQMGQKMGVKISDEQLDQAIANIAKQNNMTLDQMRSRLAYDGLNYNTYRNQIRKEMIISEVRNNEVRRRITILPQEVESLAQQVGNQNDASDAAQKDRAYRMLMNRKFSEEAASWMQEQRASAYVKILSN

SurA-WT [3] = target: T1, SurA-WT; assay: NMR titration; methyl-TROSY (2D 1H-13C SOFAST-HMQC) of Ile/Met 13CH3-labelled SurA-WT, single point: 5 µM SurA and 5 µM unfolded OMP; 5 mM EDTA, 20 mM Tris-HCl, pH 8.0, 0.8 M urea, 25 °C; peak intensities and CSPs
SurA-WT [4] = target: T1, SurA-WT; assay: FRET or BRET; single-molecule FRET (pulsed interleaved excitation) between donor and acceptor on the two termini of unfolded OmpX (~75 pM) with 30 μM SurA-WT or SurA-core; 20 mM Tris-HCl, 0.1 M urea, 0.02% Tween-20, 1 mM aged Trolox, pH 8.0, ~21 °C; binding is read from the change of the client's own FRET distribution
SurA-core [5] = target: T2, SurA-core; assay: as above

B1: Cys-OmpX labelled with Alexa Fluor 488 (natural protein)
chain: MGSCATSTVTGGYAQSDAQGQMNKMGGFNLKYRYEEDNSPLGVIGSFTYTEKSRTASSGDYNKNQYYGITAGPAYRINDWASIYGVVGVGYGKFQTTEYPTYKHDTSDYGFSYGAGLQFNPMENVALDFSYEQSRIRSVDVGTWIAGVGYRF
modifications: Alexa Fluor 488 on the N-terminal Cys
notes: lacks the C-terminal Cys of Cys-OmpX-Cys; The MST methods say only 'Alexa Fluor 488-labelled OmpX'; also called Alexa Fluor 488-labelled OmpX; OmpX (MST); source: E. coli BL21[DE3], inclusion bodies, purified; labelled by maleimide chemistry
Q: Does B1 bind (SurA-WT [1])?
A: Result: binds

Q: Does B1 bind (SurA-core [2])?
A: Result: binds

B2: OmpX (natural protein, UniProt P0A917 24-171, looked up)
chain: ATSTVTGGYAQSDAQGQMNKMGGFNLKYRYEEDNSPLGVIGSFTYTEKSRTASSGDYNKNQYYGITAGPAYRINDWASIYGVVGVGYGKFQTTEYPTYKHDTSDYGFSYGAGLQFNPMENVALDFSYEQSRIRSVDVGTWIAGVGYRF
notes: Unfolded client in the assay (0.8 M urea); Cloned at the NdeI site, so a start Met probably precedes residue 24; also called unfolded OmpX; full-length OmpX; source: E. coli BL21[DE3], inclusion bodies, purified in 6 M Gdn-HCl (Superdex 75)
Q: Does B2 bind (SurA-WT [3])?
A: Result: binds

B3: Cys-OmpX-Cys labelled with Alexa Fluor 488 and ATTO 565 (natural protein)
chain: MGSCATSTVTGGYAQSDAQGQMNKMGGFNLKYRYEEDNSPLGVIGSFTYTEKSRTASSGDYNKNQYYGITAGPAYRINDWASIYGVVGVGYGKFQTTEYPTYKHDTSDYGFSYGAGLQFNPMENVALDFSYEQSRIRSVDVGTWIAGVGYRFC
modifications: Alexa Fluor 488 and ATTO 565 via maleimide on the N- and C-terminal Cys residues (stochastic labelling)
notes: additional C-terminal Cys residue; Unfolded client in 0.1 M urea; also called OmpX (smFRET); FRET-labelled OmpX; source: E. coli BL21[DE3], inclusion bodies, purified; labelled by maleimide chemistry
Q: Does B3 bind (SurA-WT [4])?
A: Result: binds

Q: Does B3 bind (SurA-core [5])?
A: Result: binds

B4: OmpF (natural protein, UniProt P02931 23-362, looked up)
chain: AEIYNKDGNKVDLYGKAVGLHYFSKGNGENSYGGNGDMTYARLGFKGETQINSDLTGYGQWEYNFQGNNSEGADAQTGNKTRLAFAGLKYADVGSFDYGRNYGVVYDALGYTDMLPEFGGDTAYSDDFFVGRVGGVATYRNSNFFGLVDGLNFAVQYLGKNERDTARRSNGDGVGGSISYEYEGFGIVGAYGAADRTNLQEAQPLGNGKKAEQWATGLKYDANNIYLAANYGETRNATPITNKFTNTSGFANKTQDVLLVAQYQFDFGLRPSIAYTKSKAKDVEGIGDVDLVNYFEVGATYYFNKNMSTYVDYIINQIDSDNKLGVGSDDTVAVGIVYQF
notes: Unfolded client (0.8 M urea); source: E. coli BL21[DE3], inclusion bodies, purified in 6 M Gdn-HCl (Superdex 75)
Q: Does B4 bind (SurA-WT [3])?
A: Result: binds

B5: tOmpA (domain or fragment, UniProt P0A910 22-192, looked up)
chain: APKDNTWYTGAKLGWSQYHDTGFINNNGPTHENQLGAGAFGGYQVNPYVGFEMGYDWLGRMPYKGSVENGAYKAQGVQLTAKLGYPITDDLDIYTRLGGMVWRADTKSNVYGKNHDTGVSPVFAGGVEYAITPEIATRLEYQWTNNIGDAHTIGTRPDNGMLSLGVSYRFG
notes: as for B4
Q: Does B5 bind (SurA-WT [3])?
A: Result: binds
